In FireProtDB (doi:10.1038/srep15545):

B1: Divalent-cation tolerance protein CutA, P69488 (parent)
chain: MLDEKSSNTASVVVLCTAPDEATAQDLAAKVLAEKLAACATLIPGATSLYYWEGKLEQEYEVQMILKTTVSHQQALLECLKSHHPYQTPELLVLPVTHGDTDYLSWLNASLR

Variants of: B1
Conditions: Escherichia coli (strain K12), pH 9, Thermal, DSC, Glycine 50mM, reversible: yes, whole UniProt chain shown

MLDEKSSNTAVVVVLCTAPDEATAQDLAAKVLAEKLAACATLIPGATSLYYWEGKLEQEYVVQMILKTTVSHQQALLECLKSHHPYQTPELLVLPVTHGDTDYLSWLNASLR [S11V E61V]
Tm (structure 1NAQ): 113 °C | change of melting temperature, mutant - wild type (higher = more stable) (structure 1NAQ): 27.6 °C | unfolding enthalpy (calorimetric) (structure 1NAQ): 375 kcal/mol

MLDEKSSNTASVVVLCTAPDEATAQDLAAKVLAEKLAACATLIPGATSLYYWEGKLEQEYEVQMILKTTVSHQQALLECLKSHHPYKRPELLVLPVTHGDTDYLSWLNASLR [Q87K T88R]
Tm (structure 1NAQ): 122 °C | change of melting temperature, mutant - wild type (higher = more stable) (structure 1NAQ): 36.8 °C | unfolding enthalpy (calorimetric) (structure 1NAQ): 378 kcal/mol

MLDEKSSNTASVVVLCTAPDEATAQDLAAKVLAEKLAACATLIPGATSLYYWEGKLEQEYEVQMILKTTVSKQQALLECLKSHHPYQTPELLVLPVTHGDTDYLSWLNASLR [H72K]
Tm (structure 1NAQ): 118 °C | change of melting temperature, mutant - wild type (higher = more stable) (structure 1NAQ): 32.8 °C | unfolding enthalpy (calorimetric) (structure 1NAQ): 364 kcal/mol

MLDEKSSNTASVVVLCTAPDEATAQDLAAKVLAEKLAACATLIPGATSLYYWEGKLEQEYVVQMILKTTVSHQQALLECLKSHHPYQTPELLVLPVTHGDTDYLSWLNASLR [E61V]
Tm (structure 1NAQ): 101 °C | change of melting temperature, mutant - wild type (higher = more stable) (structure 1NAQ): 15.4 °C | unfolding enthalpy (calorimetric) (structure 1NAQ): 293 kcal/mol

MLDEKSSNTASVVVLCKAPDEATAQDLAAKVLAEKLAACATLIPGATSLYYWEGKLEQEYEVQMILKTTVSHQQALLECLKSHHPYQTPELLVLPVTHGDTDYLSWLNASLR [T17K]
Tm (structure 1NAQ): 107 °C | change of melting temperature, mutant - wild type (higher = more stable) (structure 1NAQ): 21.6 °C | unfolding enthalpy (calorimetric) (structure 1NAQ): 314 kcal/mol

MLDEKSSNTASVVVLCTAPDEATAQDLAAKVLAEKLAACATLIPGATSLYYWEGKLEQEYEVQMILKTTVSHQQALLECLKKHHPYQTPELLVLPVTHGDTDYLSWLNASLR [S82K]
Tm (structure 1NAQ): 117 °C | change of melting temperature, mutant - wild type (higher = more stable) (structure 1NAQ): 31.3 °C | unfolding enthalpy (calorimetric) (structure 1NAQ): 353 kcal/mol

MLDEKSSNTASVVVLCTAPDEATAQDLAAKVLAEKLAACATLIPGATSLYYWEGKLEQEYEVQMILKTTVSHQQALLECLKRHHPYQTPELLVLPVTHGDTDYLSWLNASLR [S82R]
Tm (structure 1NAQ): 117 °C | change of melting temperature, mutant - wild type (higher = more stable) (structure 1NAQ): 31.5 °C | unfolding enthalpy (calorimetric) (structure 1NAQ): 346 kcal/mol

MLDEKSSNTAVVVVLCTAPDEATAQDLAAKVLAEKLAACATLIPGATSLYYWEGKLEQEYEVQMILKTTVSHQQALLECLKSHHPYQTPELLVLPVTHGDTDYLSWLNASLR [S11V]
Tm (structure 1NAQ): 103 °C | change of melting temperature, mutant - wild type (higher = more stable) (structure 1NAQ): 17.1 °C | unfolding enthalpy (calorimetric) (structure 1NAQ): 311 kcal/mol

MLDEKSSNTASVVVLCTAPDEATAQDLAAKVLAEKLAADATLIPGATSLYYWEGKLEQEYEVQMILKTTVSHQQALLECLKSHHPYQTPELLVLPVTHGDTDYLSWLNASLR [C39D]
Tm (structure 4Y65): 105 °C | change of melting temperature, mutant - wild type (higher = more stable) (structure 4Y65): 19.8 °C | unfolding enthalpy (calorimetric) (structure 4Y65): 286 kcal/mol

MLDEKSSNTASVVVLCTAPDEATAQDLAAKVLAEKLAACATLIPGATSLYYWEGKLEQEYEVQMILKTTVSHQQALLECLKSHHPYKTPELLVLPVTHGDTDYLSWLNASLR [Q87K]
Tm (structure 1NAQ): 117 °C | change of melting temperature, mutant - wild type (higher = more stable) (structure 1NAQ): 31.2 °C | unfolding enthalpy (calorimetric) (structure 1NAQ): 340 kcal/mol

MLDEKSSNTASVVVLCTAPDEATAQDLAAKVLAEKLAACATLIPGATKLYYWEGKLEQEYEVQMILKTTVSHQQALLECLKSHHPYQTPELLVLPVTHGDTDYLSWLNASLR [S48K]
Tm (structure 1NAQ): 112 °C | change of melting temperature, mutant - wild type (higher = more stable) (structure 1NAQ): 26.6 °C | unfolding enthalpy (calorimetric) (structure 1NAQ): 280 kcal/mol | Tm (structure 4Y65): 118 °C | change of melting temperature, mutant - wild type (higher = more stable) (structure 4Y65): 32.7 °C | unfolding enthalpy (calorimetric) (structure 4Y65): 337 kcal/mol

MLDEKSSNTASVVVLCTAPDEATAQDLAAKVLAEKLAACATLIPGATSLYYWEGKLEQEYEVQMILKTTVSHQQALLECLKSHHPYQTPELLVLPVTHGDTDYLSWLNARLR [S110R]
Tm (structure 1NAQ): 117 °C | change of melting temperature, mutant - wild type (higher = more stable) (structure 1NAQ): 31.7 °C | unfolding enthalpy (calorimetric) (structure 1NAQ): 391 kcal/mol

MLDEKSSNTASVVVLCTAPDEATAQDLAAKVLAEKLAACATLIPGATKLYYWEGKLEQEYEVQMILKTTVSKQQALLECLKKHHPYKRPELLVLPVTHGDTDYLSWLNASLR [S48K H72K S82K Q87K T88R]
Tm (structure 1NAQ): 137 °C | change of melting temperature, mutant - wild type (higher = more stable) (structure 1NAQ): 51.2 °C | unfolding enthalpy (calorimetric) (structure 1NAQ): 416 kcal/mol

MLDEKSSNTASVVVLCTAPDEATAQDLAAKVLAEKLAACATLIPGATSLYYWEGKLEQEYEVQMILKTTVSHQQALLECLKSHHPYQRPELLVLPVTHGDTDYLSWLNASLR [T88R]
Tm (structure 1NAQ): 118 °C | change of melting temperature, mutant - wild type (higher = more stable) (structure 1NAQ): 32 °C | unfolding enthalpy (calorimetric) (structure 1NAQ): 359 kcal/mol
